The text below walks through data of article PMC4209464.

For assay [1], the target named is PfCD mutant Ile138His (Pyrococcus furiosus). The assay can be described thus: native gel or EMSA. In general terms: Mobility shift assays separate free from complexed probe on a gel.
The target in assay [2] is Pyrococcus furiosus Chaperonin 60 with Ile138, with the last 22 amino acids deleted (PfCD) (Pyrococcus furiosus). Briefly: SEC. (SEC sorts molecules by how far they enter the pores of the column.)
For assay [3] the target is unchanged. Briefly: native gel or EMSA.

Usually stoichiometry N stands for a count of units in the complex or per binding partner.

Regarding “PfCD mutant Ile138His (domain or fragment)”, in assay [1], the stoichiometry N was determined as 16. Regarding “Pyrococcus furiosus Chaperonin 60 with Ile138, with the last 22 amino acids deleted (PfCD) (domain or fragment)”, the stoichiometry N in assay [2] and in assay [3] was 16 throughout.
